Measured values from patent US20250109209A1 (ABSCI, published 2025).
Residue numbers refer to the chain shown, from its start.

T1: human TL1A (human, UniProt O95150 72-251)
T1 construct: Antigen in SPR and ELISA; Also used here for places that print only 'TL1A' and for endogenous TL1A in human whole blood; also called TNFSF15
T1 sequence (looked up): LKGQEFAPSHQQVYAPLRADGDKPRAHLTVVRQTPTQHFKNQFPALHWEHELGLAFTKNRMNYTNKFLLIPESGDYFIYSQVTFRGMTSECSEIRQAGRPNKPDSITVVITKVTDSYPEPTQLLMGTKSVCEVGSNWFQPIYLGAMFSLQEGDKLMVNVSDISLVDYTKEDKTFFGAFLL

T2: Cyno TL1A (cyno, UniProt G7PRK8 72-251)
T2 sequence: T1 sequence (looked up) with F39L, I78V

T3: mouse TL1A (mouse, UniProt Q5UBV8 76-252, limits assumed)
T3 sequence (looked up): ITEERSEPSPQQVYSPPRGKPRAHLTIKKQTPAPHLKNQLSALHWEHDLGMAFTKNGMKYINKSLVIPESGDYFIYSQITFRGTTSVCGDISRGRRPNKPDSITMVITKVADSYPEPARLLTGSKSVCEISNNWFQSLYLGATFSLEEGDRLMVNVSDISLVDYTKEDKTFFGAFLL

B1: Antibody 9 (Fab format) (Fab, V domains shown)
VH: QVQLQESGPGLVRPSQTLSLTCTVSGFDIQDTYMHWVRQRPGRGLEWMGRIEPAGGHTKYNPSLKSRVTITRDTSKNQVSLRLSSVTAADTAVYYCVRSGGLPDAWGQGSLVTVSS
VL: DIQMTQSPSSLSASVGDRVTITCRASQGVGYMYWYQQKPGKAPKLLIYSASNLASGVPSRFSGSGSGTDFTFTISSLQPEDIATYYCQQWEGNPRTFGQGTKVEIK
notes: High priority lead, Fab format
B2: Antibody 16 (Fab format) (Fab, V domains shown)
VH: B1 VH with I29M, D31S, A105V
VL: B1 VL with G30E, S49G
notes: as for B1
B3: Antibody 12 (Fab format) (Fab, V domains shown)
VH: B1 VH with Q30T, A105V
VL: B1 VL with G30E
notes: as for B1
B4: Antibody 11 (Fab format) (Fab, V domains shown)
VH: B1 VH with I29M, Q30G, L102M, A105V
VL: B1 VL with G30E
notes: as for B1
B5: Antibody 17 (Fab format) (Fab, V domains shown)
VH: B1 VH with I29M, Q30G, G55A, A105V
VL: B1 VL with G30E, S49G
notes: as for B1
B6: Antibody 14 (Fab format) (Fab, V domains shown)
VH: B1 VH with F27L, I29P, Q30D, R98I, A105V
VL: B1 VL with V29I, G30Y, S49G
notes: as for B1
B7: Antibody 20 (Fab format) (Fab, V domains shown)
VH: B1 VH with G55S, V97A, L102M, A105M
VL: B1 VL with G30M, S49G
notes: as for B1
B8: Antibody 10 (Fab format) (Fab, V domains shown)
VH: B1 VH with F27L, I29P, Q30D, R98I, A105V
VL: B1 VL with G30E, S49G
notes: as for B1
B9: Antibody 15 (Fab format) (Fab, V domains shown)
VH: B1 VH
VL: B1 VL with V29I, G30Y, S49G
notes: as for B1
B10: Antibody 13 (Fab format) (Fab, V domains shown)
VH: B1 VH with I29Y, E52D, G55S, V97A, R98V, L102M, A105V
VL: B1 VL with G30E, S49A, A50T
notes: as for B1
B11: Antibody 19 (Fab format) (Fab, V domains shown)
VH: B1 VH with Q30T, A105V
VL: B1 VL with G30E, S49Y
notes: as for B1
B12: Antibody 18 (Fab format) (Fab, V domains shown)
VH: B1 VH with I29M, Q30G, L102M, A105V
VL: B1 VL with Q27S, G28S, G30S, S49Y
notes: as for B1
B13: Antibody 16 (mAb format) (antibody, human IgG1, kappa, N297A)
heavy: QVQLQESGPGLVRPSQTLSLTCTVSGFDMQSTYMHWVRQRPGRGLEWMGRIEPAGGHTKYNPSLKSRVTITRDTSKNQVSLRLSSVTAADTAVYYCVRSGGLPDVWGQGSLVTVSSASTKGPSVFPLAPSSKSTSGGTAALGCLVKDYFPEPVTVSWNSGALTSGVHTFPAVLQSSGLYSLSSVVTVPSSSLGTQTYICNVNHKPSNTKVDKKVEPKSCDKTHTCPPCPAPELLGGPSVFLFPPKPKDTLMISRTPEVTCVVVDVSHEDPEVKFNWYVDGVEVHNAKTKPREEQYASTYRVVSVLTVLHQDWLNGKEYKCKVSNKALPAPIEKTISKAKGQPREPQVYTLPPSRDELTKNQVSLTCLVKGFYPSDIAVEWESNGQPENNYKTTPPVLDSDGSFFLYSKLTVDKSRWQQGNVFSCSVLHEALHSHYTQKSLSLSPGK
light: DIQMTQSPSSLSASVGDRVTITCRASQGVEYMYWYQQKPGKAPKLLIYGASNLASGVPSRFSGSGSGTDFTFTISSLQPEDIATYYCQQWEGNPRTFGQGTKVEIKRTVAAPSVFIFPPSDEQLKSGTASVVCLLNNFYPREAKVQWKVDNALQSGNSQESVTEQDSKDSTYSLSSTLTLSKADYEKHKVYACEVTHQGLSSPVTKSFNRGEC
notes: also called high priority lead mAb
B14: Antibody 7 (mAb format) (antibody, human IgG1, kappa, N297A)
heavy: B13 heavy with Q30G, S31D, G55A, V105I
light: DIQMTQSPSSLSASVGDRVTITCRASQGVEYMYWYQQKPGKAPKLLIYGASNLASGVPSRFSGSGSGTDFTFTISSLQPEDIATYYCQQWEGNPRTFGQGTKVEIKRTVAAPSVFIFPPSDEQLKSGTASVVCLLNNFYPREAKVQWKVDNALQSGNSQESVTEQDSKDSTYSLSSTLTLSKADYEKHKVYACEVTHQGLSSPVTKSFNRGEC
notes: as for B13
B15: Antibody 12 (mAb format) (antibody, human IgG1, kappa, N297A)
heavy: B13 heavy with M29I, Q30T, S31D
light: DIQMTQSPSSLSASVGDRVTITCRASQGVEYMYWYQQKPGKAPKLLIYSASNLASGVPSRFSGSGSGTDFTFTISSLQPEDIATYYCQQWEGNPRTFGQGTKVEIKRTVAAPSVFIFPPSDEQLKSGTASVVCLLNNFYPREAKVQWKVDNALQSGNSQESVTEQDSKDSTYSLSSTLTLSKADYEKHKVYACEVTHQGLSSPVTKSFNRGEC
notes: as for B13
B16: Antibody 1 (mAb format) (antibody, human IgG1, kappa, N297A)
heavy: B13 heavy with M29I, S31D, V97A, R98S, L102M, V105L
light: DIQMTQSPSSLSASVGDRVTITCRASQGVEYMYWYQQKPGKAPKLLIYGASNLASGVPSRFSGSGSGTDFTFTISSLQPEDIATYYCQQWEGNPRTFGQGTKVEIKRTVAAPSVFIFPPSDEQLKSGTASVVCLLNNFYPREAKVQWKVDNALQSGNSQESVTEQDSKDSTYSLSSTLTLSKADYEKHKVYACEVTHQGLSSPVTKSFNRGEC
notes: also called Lead #1; high priority lead mAb
B17: Antibody 9 (mAb format) (antibody, human IgG1, kappa, N297A)
heavy: B13 heavy with M29I, S31D, V105A
light: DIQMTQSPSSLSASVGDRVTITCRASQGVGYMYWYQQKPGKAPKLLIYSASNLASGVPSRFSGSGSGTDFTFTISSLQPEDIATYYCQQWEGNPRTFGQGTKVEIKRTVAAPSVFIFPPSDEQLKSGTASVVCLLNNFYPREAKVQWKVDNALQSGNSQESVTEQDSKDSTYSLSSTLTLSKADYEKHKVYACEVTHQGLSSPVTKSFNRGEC
notes: as for B13
B18: Antibody 15 (mAb format) (antibody, human IgG1, kappa, N297A)
heavy: B13 heavy with M29I, S31D, V105A
light: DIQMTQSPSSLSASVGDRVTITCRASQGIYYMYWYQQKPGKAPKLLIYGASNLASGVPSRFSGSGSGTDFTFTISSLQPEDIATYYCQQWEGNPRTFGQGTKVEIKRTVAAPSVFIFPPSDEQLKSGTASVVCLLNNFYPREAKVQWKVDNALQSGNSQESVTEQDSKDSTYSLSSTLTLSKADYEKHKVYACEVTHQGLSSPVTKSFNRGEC
notes: as for B13
B19: Antibody 8 (mAb format) (antibody, human IgG1, kappa, N297A)
heavy: B13 heavy
light: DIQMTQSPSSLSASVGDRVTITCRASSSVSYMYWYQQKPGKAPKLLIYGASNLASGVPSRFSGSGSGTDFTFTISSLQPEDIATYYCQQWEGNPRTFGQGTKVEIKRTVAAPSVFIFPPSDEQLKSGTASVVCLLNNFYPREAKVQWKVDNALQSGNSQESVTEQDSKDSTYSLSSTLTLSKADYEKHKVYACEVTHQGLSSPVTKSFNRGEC
notes: as for B13
B20: Antibody 11 (mAb format) (antibody, human IgG1, kappa, N297A)
heavy: B13 heavy with Q30G, S31D, L102M
light: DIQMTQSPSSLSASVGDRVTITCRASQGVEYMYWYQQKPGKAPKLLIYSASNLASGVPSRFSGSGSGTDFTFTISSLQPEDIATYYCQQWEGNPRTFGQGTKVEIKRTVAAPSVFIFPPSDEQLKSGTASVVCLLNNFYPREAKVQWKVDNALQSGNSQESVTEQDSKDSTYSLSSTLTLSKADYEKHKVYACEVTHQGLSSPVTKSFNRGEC
notes: as for B13
B21: Antibody 19 (mAb format) (antibody, human IgG1, kappa, N297A)
heavy: B13 heavy with M29I, Q30T, S31D
light: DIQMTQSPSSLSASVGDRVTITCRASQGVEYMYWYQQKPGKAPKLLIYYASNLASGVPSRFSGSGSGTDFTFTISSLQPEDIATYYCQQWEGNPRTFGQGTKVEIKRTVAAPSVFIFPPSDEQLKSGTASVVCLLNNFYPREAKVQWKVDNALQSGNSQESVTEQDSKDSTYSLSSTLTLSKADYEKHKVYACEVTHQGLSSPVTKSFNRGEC
notes: as for B13
B22: Antibody 6 (mAb format) (antibody, human IgG1, kappa, N297A)
heavy: B13 heavy with Q30A, S31D, V105M
light: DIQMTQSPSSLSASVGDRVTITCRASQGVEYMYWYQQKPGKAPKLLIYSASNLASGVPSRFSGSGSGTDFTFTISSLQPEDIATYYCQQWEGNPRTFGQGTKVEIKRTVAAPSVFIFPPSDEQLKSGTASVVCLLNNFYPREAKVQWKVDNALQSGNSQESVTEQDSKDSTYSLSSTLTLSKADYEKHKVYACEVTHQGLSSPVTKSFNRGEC
notes: as for B13
B23: Antibody 14 (mAb format) (antibody, human IgG1, kappa, N297A)
heavy: B13 heavy with F27L, M29P, Q30D, S31D, R98I
light: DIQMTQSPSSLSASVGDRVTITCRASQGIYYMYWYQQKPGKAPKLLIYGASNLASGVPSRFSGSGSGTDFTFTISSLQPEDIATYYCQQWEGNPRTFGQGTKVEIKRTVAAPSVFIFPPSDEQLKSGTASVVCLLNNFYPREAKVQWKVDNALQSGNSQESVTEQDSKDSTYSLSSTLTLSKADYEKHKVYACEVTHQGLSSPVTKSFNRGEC
notes: as for B13
B24: Antibody 18 (mAb format) (antibody, human IgG1, kappa, N297A)
heavy: B13 heavy with Q30G, S31D, L102M
light: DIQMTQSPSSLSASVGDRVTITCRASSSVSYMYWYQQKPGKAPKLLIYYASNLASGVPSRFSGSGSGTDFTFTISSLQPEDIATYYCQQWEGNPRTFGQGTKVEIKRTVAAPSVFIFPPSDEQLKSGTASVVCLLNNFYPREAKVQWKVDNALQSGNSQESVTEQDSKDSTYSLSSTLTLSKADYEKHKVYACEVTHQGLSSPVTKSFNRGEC
notes: as for B13
B25: Antibody 5 (mAb format) (antibody, human IgG1, kappa, N297A)
heavy: B13 heavy with S31D, G55S
light: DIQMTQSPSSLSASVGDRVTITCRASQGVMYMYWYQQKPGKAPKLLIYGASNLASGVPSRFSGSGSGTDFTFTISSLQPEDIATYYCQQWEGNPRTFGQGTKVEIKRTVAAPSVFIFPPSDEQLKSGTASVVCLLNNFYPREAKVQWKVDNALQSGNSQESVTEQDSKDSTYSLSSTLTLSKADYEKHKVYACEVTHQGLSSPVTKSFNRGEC
notes: as for B13
B26: Antibody 4 (mAb format) (antibody, human IgG1, kappa, N297A)
heavy: B13 heavy with Q30A, S31D, V105M
light: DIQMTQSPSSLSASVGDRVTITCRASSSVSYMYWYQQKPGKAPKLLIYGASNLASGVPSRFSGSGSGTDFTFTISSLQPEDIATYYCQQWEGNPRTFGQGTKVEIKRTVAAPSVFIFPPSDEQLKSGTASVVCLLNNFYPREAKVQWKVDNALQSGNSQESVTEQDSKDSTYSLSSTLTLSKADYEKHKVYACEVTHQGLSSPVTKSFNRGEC
notes: as for B13
B27: Antibody 17 (mAb format) (antibody, human IgG1, kappa, N297A)
heavy: B13 heavy with Q30G, S31D, G55A
light: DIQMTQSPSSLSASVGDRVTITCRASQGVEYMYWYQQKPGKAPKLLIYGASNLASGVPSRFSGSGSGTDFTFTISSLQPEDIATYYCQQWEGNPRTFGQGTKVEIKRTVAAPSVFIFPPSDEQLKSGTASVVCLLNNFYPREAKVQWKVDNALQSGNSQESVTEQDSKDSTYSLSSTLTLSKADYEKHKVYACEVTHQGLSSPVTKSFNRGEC
notes: as for B13

Key:
[1] = molecular target: T1, human TL1A; assay: SPR, Fab format
[2] = molecular target: T1, human TL1A; assay: SPR, Fab format, average
[3] = molecular target: T2, Cyno TL1A; assay: SPR, Fab format, average
[4] = molecular target: T1, human TL1A; assay: SPR, Fab lysate, average
[5] = molecular target: T1, human TL1A; assay: SPR, mAb format, average
[6] = molecular target: T2, Cyno TL1A; assay: SPR, mAb format, average
[7] = molecular target: T3, mouse TL1A; assay: SPR, mAb format, average
[8] = molecular target: T4, FcRn (UniProt P55899 24-297; P61769 21-119); assay: SPR, mAb format, FcRn at pH 6.0, average
T4 construct: also called neonatal receptor

[9] = molecular target: T1, human TL1A; assay: SPR, mAb format, average; remark: listed apart in the source
[10] = molecular target: T1, human TL1A; assay: SPR, mAb format, average; remark: listed apart in the source

T4 sequence (P55899 24-297 limits assumed, chain 1 of 2): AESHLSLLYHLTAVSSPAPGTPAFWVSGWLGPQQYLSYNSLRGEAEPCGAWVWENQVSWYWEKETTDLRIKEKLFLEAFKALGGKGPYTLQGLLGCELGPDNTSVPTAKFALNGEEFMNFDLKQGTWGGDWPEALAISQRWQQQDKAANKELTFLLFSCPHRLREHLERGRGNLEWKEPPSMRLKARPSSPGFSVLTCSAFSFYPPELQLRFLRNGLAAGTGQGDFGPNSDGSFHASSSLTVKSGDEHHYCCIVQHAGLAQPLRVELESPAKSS
T4 sequence (P61769 21-119 limits assumed, chain 2 of 2): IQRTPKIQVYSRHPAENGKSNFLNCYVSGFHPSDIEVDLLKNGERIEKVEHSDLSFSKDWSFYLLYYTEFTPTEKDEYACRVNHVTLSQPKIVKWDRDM

Row | Binder | Kd [1] | Kd [2] | Kd [3] | Kd [4] | Kd [5] | Kd [6] | Kd [7] | Kd [8] | Kd [9] | Kd [10]
1 | B1 | < 1 nM | 0.43 nM | 1.99 nM | 0.43 nM | – | – | – | – | – | –
2 | B2 | < 1 nM | 0.51 nM | 0.32 nM | 0.51 nM | – | – | – | – | – | –
3 | B3 | < 1 nM | 0.43 nM | 1.29 nM | 0.43 nM | – | – | – | – | – | –
4 | B4 | < 1 nM | 0.48 nM | 0.38 nM | 0.48 nM | – | – | – | – | – | –
5 | B5 | < 1 nM | 0.57 nM | 0.33 nM | 0.57 nM | – | – | – | – | – | –
6 | B6 | < 1 nM | 0.7 nM | 4.25 nM | 0.7 nM | – | – | – | – | – | –
7 | B7 | < 1 nM | 0.76 nM | 1.28 nM | 0.76 nM | – | – | – | – | – | –
8 | B8 | < 1 nM | 0.48 nM | 1.83 nM | 0.48 nM | – | – | – | – | – | –
9 | B9 | < 1 nM | 0.5 nM | 1.81 nM | 0.5 nM | – | – | – | – | – | –
10 | B10 | < 1 nM | 0.43 nM | 0.34 nM | 0.43 nM | – | – | – | – | – | –
11 | B11 | < 1 nM | 0.72 nM | 5.14 nM | 0.72 nM | – | – | – | – | – | –
12 | B12 | < 1 nM | 0.67 nM | 1.28 nM | 0.67 nM | – | – | – | – | – | –
13 | B13 | – | – | – | – | 0.339 nM | 0.09 nM | 955 nM | 17.7 nM | 0.339 nM | 0.339 nM
14 | B14 | – | – | – | – | 0.179 nM | 0.125 nM | 1270 nM | 19 nM | 0.179 nM | 0.179 nM
15 | B15 | – | – | – | – | 0.17 nM | 0.118 nM | 13100 nM | 19.7 nM | 0.17 nM | 0.17 nM
16 | B16 | – | – | – | – | 0.151 nM | 0.139 nM | 74500 nM | 17.5 nM | 0.151 nM | 0.151 nM
17 | B17 | – | – | – | – | 0.096 nM | 0.064 nM | 739 nM | 18.2 nM | 0.096 nM | 0.096 nM
18 | B18 | – | – | – | – | 0.067 nM | 0.046 nM | 162 nM | 17.4 nM | 0.067 nM | 0.067 nM
19 | B19 | – | – | – | – | 0.091 nM | 0.085 nM | 418 nM | 17.6 nM | 0.091 nM | 0.091 nM
20 | B20 | – | – | – | – | 0.2 nM | 0.135 nM | 842 nM | 20.4 nM | 0.2 nM | 0.2 nM
21 | B21 | – | – | – | – | 0.38 nM | 0.123 nM | 691 nM | 16.5 nM | 0.38 nM | 0.38 nM
22 | B22 | – | – | – | – | 0.101 nM | 0.085 nM | 1720 nM | 20.9 nM | 0.101 nM | 0.101 nM
23 | B23 | – | – | – | – | 0.296 nM | 0.224 nM | 3810 nM | 19.8 nM | 0.296 nM | 0.296 nM
24 | B24 | – | – | – | – | 0.252 nM | 0.087 nM | 397 nM | 16.2 nM | 0.252 nM | 0.252 nM
25 | B25 | – | – | – | – | 0.073 nM | 0.038 nM | 727 nM | 17.2 nM | 0.073 nM | 0.073 nM
26 | B26 | – | – | – | – | 0.051 nM | 0.034 nM | 290 nM | 16.9 nM | 0.051 nM | 0.051 nM
27 | B27 | – | – | – | – | 0.172 nM | 0.099 nM | 452 nM | 17.4 nM | 0.172 nM | 0.172 nM
